# Experimental data: patent US20240148887A1 (MERSANA THERAPEUTICS, published 2024)
# T1: NaPi2b-derived peptide from rat ([Cyc(12,18)]Ac-EENVTVPSPDNCTSPSYCWTDGIQTWTIQN-amide) (rat, [Cyc(12,18)] cyclisation between residues 12 and 18; N-terminal acetyl (Ac-); C-terminal amide)
# T1 peptide: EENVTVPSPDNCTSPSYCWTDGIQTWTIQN
# T2: NaPi2b-derived peptide from mouse ([Cyc(12,18)]Ac-EMNVTVPSTDNCTSPSYCWTDGIQTWTIQN-amide) (mouse, [Cyc(12,18)] cyclisation between residues 12 and 18; N-terminal acetyl (Ac-); C-terminal amide)
# T2 peptide: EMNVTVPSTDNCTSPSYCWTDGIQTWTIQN
# T3: NaPi2b-derived peptide from cynolmogus monkey ([Cyc(12,18)]Ac-QMNVTVPSMANCTSPSLCWTDGIQIWTMKN-amide) (cynomolgus monkey, [Cyc(12,18)] cyclisation between residues 12 and 18; N-terminal acetyl (Ac-); C-terminal amide)
# T3 peptide: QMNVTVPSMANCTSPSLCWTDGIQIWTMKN
# T4: NaPi2b-derived peptide from human ([Cyc(12,18)]Ac-QINVTVPSTANCTSPSLCWTDGIQNWTMKN-amide) (human, [Cyc(12,18)] cyclisation between residues 12 and 18; N-terminal acetyl (Ac-); C-terminal amide)
# T4 peptide: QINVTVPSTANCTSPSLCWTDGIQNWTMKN
# T5: NaPi2b on the cell surface of OVCAR3 human ovarian carcinoma cells (human, UniProt O95436 1-690)
# T5 construct: also called sodium-dependent phosphate transport protein 2B; SLC34A2
# T5 sequence: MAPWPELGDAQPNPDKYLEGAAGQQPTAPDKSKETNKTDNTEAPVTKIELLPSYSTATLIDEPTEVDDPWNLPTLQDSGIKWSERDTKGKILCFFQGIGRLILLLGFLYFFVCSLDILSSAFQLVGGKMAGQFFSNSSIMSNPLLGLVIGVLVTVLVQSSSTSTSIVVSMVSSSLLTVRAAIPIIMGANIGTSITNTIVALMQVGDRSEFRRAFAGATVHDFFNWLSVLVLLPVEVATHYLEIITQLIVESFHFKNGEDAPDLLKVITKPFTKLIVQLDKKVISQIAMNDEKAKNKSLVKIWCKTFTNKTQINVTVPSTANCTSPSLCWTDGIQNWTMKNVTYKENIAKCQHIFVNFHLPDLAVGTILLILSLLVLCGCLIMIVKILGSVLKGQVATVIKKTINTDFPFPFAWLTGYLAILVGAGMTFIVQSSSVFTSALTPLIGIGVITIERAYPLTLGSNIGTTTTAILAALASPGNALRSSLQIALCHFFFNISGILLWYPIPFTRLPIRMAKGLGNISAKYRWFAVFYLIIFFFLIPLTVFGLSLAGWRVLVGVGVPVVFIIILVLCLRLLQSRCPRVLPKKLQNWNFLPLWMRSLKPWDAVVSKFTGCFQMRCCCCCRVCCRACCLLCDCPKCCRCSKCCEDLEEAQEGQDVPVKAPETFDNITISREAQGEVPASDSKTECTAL
# T6: Human NaPi2b-derived peptide (QINVTVPSTANCTSPSLCWTDGIQNWTMKN) (human)
# T6 construct: no modification is printed there; also called NaPi2b peptide
# T6 peptide: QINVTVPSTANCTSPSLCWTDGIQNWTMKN
# T7: Biotinylated NaPi2b-derived peptide (QINVTVPSTANCTSPSLCWTDGIQNWTMKN-biotin; Genscript) (C-terminal biotin)
# T7 construct: also called NaPi2b-derived peptide antigen; immobilized NaPi2b-derived peptide
# T7 peptide: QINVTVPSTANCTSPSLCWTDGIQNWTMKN
# T8: FcγRIIA (H167) (human, UniProt P12318 36-218, limits assumed)
# T8 construct: H167 is printed as the allelic form
# T8 sequence (looked up): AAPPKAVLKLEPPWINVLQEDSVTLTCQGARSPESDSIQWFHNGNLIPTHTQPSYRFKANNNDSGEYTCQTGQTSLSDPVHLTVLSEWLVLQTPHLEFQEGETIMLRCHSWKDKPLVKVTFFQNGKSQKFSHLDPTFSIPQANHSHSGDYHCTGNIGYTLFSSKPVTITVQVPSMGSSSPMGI
# Key:
# [1] = biological target: T1, NaPi2b-derived peptide from rat …; experiment: ELISA, cyclic peptide coated on plate; mean of 2 experiments
# [2] = biological target: T2, NaPi2b-derived peptide from mouse …; experiment: as above
# [3] = biological target: T3, NaPi2b-derived peptide from cynolmogus …; experiment: as above
# [4] = biological target: T4, NaPi2b-derived peptide from human …; experiment: as above
# [5] = biological target: T5, NaPi2b on the cell surface of OVCAR3 …; experiment: flow cytometry on OVCAR3 cells, Alexa Fluor 647 anti-human IgG, median fluorescence, four-parameter fit; mean of 2 experiments
# Experimental: The detached cells were triturated in media, and plated in 96 well U-bottom plates, at a density of 50,000 cells in medium (75 μL). […] The cells were washed with ice cold PBS (3×), and resuspended in ice cold PBS with 1% paraformaldehyde (100 L). The fluorescence per cell was determined by analyzing 5,000 cells for each treatment on the flow cytometer. The median fluorescence value for each treatment was plotted, and EC₅₀ values were calculated with Graphpad Prism software by four-parameter curve fitting.
# FcγRIIIA (V176) = FcγRIIIA (V176) (human, UniProt P08637 17-208, limits assumed); experiment: BLI (Octet QKe), test article on anti-human Fab-CH1 (FAB2G) sensors, receptor in solution, 25 C, 1:1 global fit; mean of 2 experiments
# Experimental: (§1) Dissociation was performed for 15 minutes. Binding constants were calculated with the global fit averages of the traces using a 1:1 model. […] Kinetic parameters were calculated using Octet software (ForteBio).
# [6] = biological target: T9, human FcRn protein (Immunitrack) (human, UniProt P55899 24-297; P61769 21-119, limits assumed); experiment: BLI (Octet QKe), test article on anti-human Fab-CH1 (FAB2G) sensors, FcRn in solution, pH 6.0, 1:1 global fit; mean of 2 experiments
# T9 construct: also called FcRn receptor
# Experimental: as §1
# (§2) After association, sensors were washed for 5 minutes in FcRn binding buffer (Boston Bioproducts; diluted to 100 mM NaH₂PO₄, 0.05% Tween 20, pH 6.0). Association and dissociation steps were performed in FcRn binding buffer. Association measurements to FcRn protein (Immunitrack) was measured at 7 concentrations (from 1 μM to […], 2-fold serial dilutions) for 5 minutes. Dissociation was performed for 15 minutes. Binding constants were calculated with the global fit averages of the traces using a 1:1 model.
# [7] = biological target: T6, Human NaPi2b-derived peptide …; experiment: ELISA, peptide coated on plate, anti-human IgG-HRP, four-parameter fit; mean of 2 experiments
# Experimental: (§3) Human NaPi2b-derived peptide ([sequence]) was coated onto the surface of each well of a 96-well plate by incubation with the peptide (1 μg/mL in PBS), overnight at +4° C. The wells were then blocked by incubation with BSA (3% in PBS, containing 0.1% Tween 20 (PBST)) for 1 hour at room temperature. […] The unbound test article was removed by washing with PBST (3×). A secondary anti-human IgG conjugated to HRP (0.16 μg/mL in PBST) was incubated in each well for 1 hour. The unbound secondary antibody was removed by washing with PBST (3×). The HRP substrate, TMB, was added to each well and incubated until a blue color was visible. The reaction was quenched by the addition of sulfuric acid (0.2 N, 100 μL). […] The values were plotted using GraphPad Prism software. EC₅₀ values were determined by four-parameter curve fitting.
# [8] = biological target: T7, Biotinylated NaPi2b-derived peptide …; experiment: BLI (Octet), biotinylated peptide on streptavidin sensors, 25 C; mean of 4 experiments
# Experimental: Biotinylated NaPi2b-derived peptide ([…]-biotin; Genscript) was immobilized to streptavidin octet sensors in kinetics buffer (10×). Sensors were then blocked in kinetics buffer (10×) with biocytin (50 μg/mL).
# FcγRIIA (H167) [9] = biological target: T8, FcγRIIA (H167); experiment: BLI (Octet QKe), test article on anti-human Fab-CH1 (FAB2G) sensors, receptor in solution, 25 C, 1:1 global fit; mean of 3 experiments
# Experimental: as §1
# FcγRI [10] = biological target: T10, FcγRI (human, UniProt P12314 16-288, limits assumed); experiment: as above
# T10 construct: also called Fc receptor FcγRI
# Experimental: as §1
# [11] = biological target: T6, Human NaPi2b-derived peptide …; experiment: ELISA, peptide coated on plate, anti-human IgG-HRP, four-parameter fit; mean of 3 experiments
# Experimental: as §3
# [12] = biological target: T9, human FcRn protein (Immunitrack); experiment: BLI (Octet QKe), test article on anti-human Fab-CH1 (FAB2G) sensors, FcRn in solution, pH 6.0, 1:1 global fit; mean of 5 experiments
# Experimental: as §1, §2
# FcγRIIA (H167) [13] = biological target: T8, FcγRIIA (H167); experiment: BLI (Octet QKe), test article on anti-human Fab-CH1 (FAB2G) sensors, receptor in solution, 25 C, 1:1 global fit; mean of 2 experiments
# Experimental: as §1
# FcγRI [14] = biological target: T10, FcγRI; experiment: as above
# Experimental: as §1
# T10 sequence (P12314 16-288 limits assumed): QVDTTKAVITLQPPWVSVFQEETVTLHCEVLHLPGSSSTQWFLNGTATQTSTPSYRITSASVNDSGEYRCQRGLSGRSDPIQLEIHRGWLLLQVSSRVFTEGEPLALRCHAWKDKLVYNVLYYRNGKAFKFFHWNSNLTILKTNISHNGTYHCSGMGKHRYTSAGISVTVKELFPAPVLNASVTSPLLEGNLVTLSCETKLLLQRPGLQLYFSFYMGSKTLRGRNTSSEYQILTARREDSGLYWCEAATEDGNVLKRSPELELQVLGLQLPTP
# T9 sequence (P55899 24-297 limits assumed, chain 1 of 2): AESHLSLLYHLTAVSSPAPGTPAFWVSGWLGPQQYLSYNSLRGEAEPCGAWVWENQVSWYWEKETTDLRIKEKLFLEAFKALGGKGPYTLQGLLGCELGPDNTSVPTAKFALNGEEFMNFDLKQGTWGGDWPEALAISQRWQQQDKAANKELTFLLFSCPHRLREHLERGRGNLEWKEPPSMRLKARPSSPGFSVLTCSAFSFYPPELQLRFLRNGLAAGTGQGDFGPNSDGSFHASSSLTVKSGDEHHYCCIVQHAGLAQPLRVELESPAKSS
# T9 sequence (P61769 21-119 limits assumed, chain 2 of 2): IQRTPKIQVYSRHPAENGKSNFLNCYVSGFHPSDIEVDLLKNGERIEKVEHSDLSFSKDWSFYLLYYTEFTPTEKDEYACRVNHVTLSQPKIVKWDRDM
# Chain of FcγRIIIA (V176) (P08637 17-208 F176V limits assumed): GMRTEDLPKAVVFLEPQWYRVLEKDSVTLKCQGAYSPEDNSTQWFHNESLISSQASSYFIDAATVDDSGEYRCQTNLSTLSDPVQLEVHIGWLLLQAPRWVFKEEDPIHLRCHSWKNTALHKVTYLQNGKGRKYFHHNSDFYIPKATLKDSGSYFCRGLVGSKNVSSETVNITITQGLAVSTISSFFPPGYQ
binder,measurement,setting,value
"XMT-1535 (anti-NaPi2b antibody) (antibody, human IgG1, kappa, Unconjugated IgG1 antibody) heavy: not shown light: DIQMTQSPSSLSASVGDRVTITCSASQDIGNFLNWYQQKPGKTVKVLIYYTSSLYSGVPSRFSGSGSGTDYTLTISSLQPEDFATYYCQQYSKLPLTFGQGTKLELKRRTVAAPSVFIFPPSDEQLKSGTASVVCLLNNFYPREAKVQWKVDNALQSGNSQESVTEQDSKDSTYSLSSTLTLSKADYEKHKVYACEVTHQGLSSPVTKSFNRGEC",EC50,[1],4.71 nM
same,EC50,[2],2.77 nM
same,EC50,[3],4.04 nM
same,EC50,[4],4.43 nM
same,EC50,[5],11.2 nM
same,Kd,FcγRIIIA (V176),641 nM
same,koff,FcγRIIIA (V176),0.146 s⁻¹
same,kon,FcγRIIIA (V176),216000 M⁻¹ s⁻¹
same,Kd,[6],2.76 nM
same,koff,[6],0.000448 s⁻¹
same,kon,[6],160000 M⁻¹ s⁻¹
same,EC50,[7],1.77 nM
same,Kd,[8],0.0729 nM
same,koff,[8],1.27e-05 s⁻¹
same,kon,[8],170000 M⁻¹ s⁻¹
same,Kd,FcγRIIA (H167) [9],1740 nM
same,koff,FcγRIIA (H167) [9],0.308 s⁻¹
same,kon,FcγRIIA (H167) [9],175000 M⁻¹ s⁻¹
same,Kd,FcγRI [10],0.15 nM
same,koff,FcγRI [10],0.000192 s⁻¹
same,kon,FcγRI [10],1.28e+06 M⁻¹ s⁻¹
"Conjugate 7 (XMT-1535 drug conjugate of Scaffold 6) (antibody, human IgG1, kappa, Scaffold 6 linker-drug (AF-HPA payload) attached by click chemistry to the azido-modified GlcNAc(Fuc)-GalNAc glycan on the asparagine at N297 (N300 of SEQ ID NO: 1 according to claim 40), The glycan was trimmed with Endo SH and extended with an azido sugar; the text prints 6.6) heavy: not shown light: DIQMTQSPSSLSASVGDRVTITCSASQDIGNFLNWYQQKPGKTVKVLIYYTSSLYSGVPSRFSGSGSGTDYTLTISSLQPEDFATYYCQQYSKLPLTFGQGTKLELKRRTVAAPSVFIFPPSDEQLKSGTASVVCLLNNFYPREAKVQWKVDNALQSGNSQESVTEQDSKDSTYSLSSTLTLSKADYEKHKVYACEVTHQGLSSPVTKSFNRGEC",EC50,[1],2.48 nM
same,EC50,[2],1.79 nM
same,EC50,[3],3.83 nM
same,EC50,[4],3.7 nM
same,EC50,[11],1.44 nM
same,EC50,[5],8.15 nM
same,Kd,[12],5.88 nM
same,koff,[12],0.000481 s⁻¹
same,kon,[12],86100 M⁻¹ s⁻¹
same,Kd,[8],0.0828 nM
same,koff,[8],1.81e-05 s⁻¹
same,kon,[8],200000 M⁻¹ s⁻¹
same,Kd,FcγRI [10],3.05 nM
same,koff,FcγRI [10],0.00373 s⁻¹
same,kon,FcγRI [10],1.13e+06 M⁻¹ s⁻¹
"Conjugate 11 (XMT-1535 stochastic conjugate) (antibody, human IgG1, kappa, maleimido scaffold of Scaffold 6 (AF-HPA payload) on cysteines freed by TCEP reduction; stochastic, positions not given, DAR 6.5) heavy: not shown light: DIQMTQSPSSLSASVGDRVTITCSASQDIGNFLNWYQQKPGKTVKVLIYYTSSLYSGVPSRFSGSGSGTDYTLTISSLQPEDFATYYCQQYSKLPLTFGQGTKLELKRRTVAAPSVFIFPPSDEQLKSGTASVVCLLNNFYPREAKVQWKVDNALQSGNSQESVTEQDSKDSTYSLSSTLTLSKADYEKHKVYACEVTHQGLSSPVTKSFNRGEC",EC50,[1],3.72 nM
same,EC50,[2],2.26 nM
same,EC50,[3],4.19 nM
same,EC50,[4],5 nM
same,EC50,[11],1.05 nM
same,EC50,[5],6.56 nM
same,Kd,FcγRIIA (H167) [13],1250 nM
same,koff,FcγRIIA (H167) [13],0.345 s⁻¹
same,kon,FcγRIIA (H167) [13],273000 M⁻¹ s⁻¹
same,Kd,FcγRIIIA (V176),270 nM
same,koff,FcγRIIIA (V176),0.0671 s⁻¹
same,kon,FcγRIIIA (V176),270000 M⁻¹ s⁻¹
same,Kd,FcγRI [14],0.166 nM
same,koff,FcγRI [14],0.000209 s⁻¹
same,kon,FcγRI [14],1.26e+06 M⁻¹ s⁻¹
same,Kd,[12],4.96 nM
same,koff,[12],0.00055 s⁻¹
same,kon,[12],126000 M⁻¹ s⁻¹
same,Kd,[8],0.0813 nM
same,koff,[8],1.37e-05 s⁻¹
same,kon,[8],165000 M⁻¹ s⁻¹
